Experimental data taken from the NTF2 design screens of Basanta et al. (2020).

test: protease stability score; higher = more stable; yeast display proteolysis, trypsin and chymotrypsin;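 also: relative to predicted unfolded state with 0 unfolded-like and 1 meaning tenfold more protease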

Sequence | protease stability score
DEQEDRDMKKMYKNLQEGDDQRVADMADPNARWRVGDKTYHGKDSIRHWAKEVHDRMHFRIQSITVQNENGKVKVEIKWVTDENGKPVDQTVQVKAELHNGHIVDIDITTQS | 0.098
SEDHKQAEEFMHRVAHNVLTGDEEKLDELIDPDARLEIGDKEHHGREIFIEFWRQLRVRDIKIRHWEIIGDKIFIRGEMNGIVDGRTRIFDIIVVMVKINGKWTLKRVEIK | 1.5
SEEEEFVELAVRLFLETMRTGDEKDINRLADPHTRNIVNGRDIIGREELTRQLHEILHFFKNVQVHIEEVRWQGNYIVLKILWNFDGQTMEVHVYARKIDGRWVETEFEFR | 2.08
DEEEEMSKEATEWFKRVSKTGDEKDLVEFLDPNVLLEIGDKRFHGREVASHWMTRMFHEIRIRHIEEKEFRIYNGRATLHEHLDIEFDGRTSKIHVTVVYIKVNGRWFMESLHIR | 0.808
DEEEEYYRRAVEIHERVLRTGDWRQLRELMDPRTKIDVGDKSFHGRDTITHWTKEMLEKFGVTKVEFHFDHLEMQGDKANIRGTLQINGQPIDISIHSVKIDGRWLIKFVKID | 0.822
NETEELLRRMIEDNLRAMLTGDEERIRKLADPNVRNHINGRTHVGREELAHVFHRIFEEWRIDHMTLRDSDTQGEFIILHYIFDIRFDGRRQELEVEIIFYKIDGRWILHKITFK | 0.75
DEEKEFAEEMTRIWIEFWKTGDEDDLSHMLDPNVRLIIIIGDKHIHMHGRERAIKEIRRLLHEWRIDDEHNEHIRYFNGKVDVRSRIHVTINGREHDHELVVRIFVVDGRVKSVSIEYR | 2.52
SEVEEEMKRRVELLIRLLLTGDEDTFDSNADPDTRVVIRQGDFRVENHGRELMLHHLRELGIKVTELHLREIRIQGDWAHVNIQEHIEVDGRLESRTIHLHFFLVDGKVKSWEIEVR | 1.27
DDNTKHAHELVERWRHIIETGDEDIMEEMLDPNVRLLIGDKDLHGRETVEIWLRVLIRRFKNVRLESVHLESVEIQGNKAFSRVRVDLRYNGREDSMDVVVVVYKIDGRWRVHELSVH | 1.77
DETDEYARNMMEIFVHLLATGNEEKMLEYMDPNTRHNFNGVVLHGRDVLREWWHRWLKEIRITRTRIDHVHTQGEYVHANTTVEGTIDGRKFELETRVHLHVVNGRIKESSIKLN | 1.51
KEHEKFVEDFARLLINIWTTGDEDLFNELADPHVRVNFNGVEHHGRENVIRYIERVLREIRIDHVQTRDWTVIDGVMHIEGHIHIHFDGRQRTHDVIFHIIIWNGKMKNVIVSFR | 1.67
DEEEELMHRLVELFLKALITGDEETLSHLADPNVRLHIDGRHIHGWQFSVKEWLRESSEIRMELQIRHIHLIGDKVHVHGQLSIHQGNKHIHREVIYDFVIINGRLKSITVEIT | 1.99
DDEHEHYRRQTKLVEDLFLTGDWDKIFRLLDPHVRMEINGRQHIGRERVTTEFKQHIEDLGIDHVEIKRSHVQGEKMHLDGVIEFNGRKQSSELIIVIIDGVWHSIVVQLH | 1.09
SEDEELEKVFLRILKEILTTGDEDTLRFLLDPNARMHVGDKELHGWSNVYEQINQLRIKDYELRDFKRVGDKVDFDGRNHGHFNGRDVEHRARLIIQKIDGRWFIHANIIE | 0.626
DEEEKKAQEFLEFVMSALETGDEETLKRLMDPRVRLRFDGRDIHGREEVLRVWIEVLKRADHVRVEIRDMEFQGDKLHIHFELILHIGDKENHIEIRQNVFKVDGQWIIKEHEIR | 2.22
DEEEEFLHTLLRIFVEALMTGDEELLKKLADPHTKVRFNGQERHGWHAIQWMIEFFKNVRIEIHDMHIQGDKVHIDGRLKQGDKKLEMRIIIVIVNGKVHNEEYDLR | 1.12
SDLDRLLEEMAKRFVEVMLTGDEEIMKELIDPNARVDWDGVEIHGWKEISEWLKEEIERQENYRYEFEFRDLDVIGNKAVFFTDLHFNINGRRIRTHSVYKVNVVNGKVKHVHVEIR | 1.21
SELEESLEKFLRALRHLTETGDEDTWKRLLDPTTRLEINGKEIHGREDVSRHWKELRFRSEDPKDYKIVDGVLRLDTRVDGVFNGQHREVDVEVIVFKVDGRWEIKRIRYH | 1.56
SEEEKAFKESYDVWIEALKTGNEEESREMFDPTPLQVVNGQELHGRDHIEQEVSEWRIDHVDIDELRLQGDKAILHGRVSGHINGKRVKFEEKLVMHKIDGRWFIRSVIVR | 0.333
DEKEEEMEIASELALHVWETGDPDEFLKLADPHVKIDFDGVDIHGMDKEHERWKRVKNLTMHIKRFSYQGDKVHLDVILIVNGRTETIHIIASKVNGRWLIKRVIINRR | 1.37
SELHEDAEEIAKQFSRAWTTGDFEELDKLFDPNARIEYGDYEVHGRHIVSKFLRQIRIKEVRFIVRRVEHYDGRIRLWGELTLHGNINGRDFDLHTKSDLLVIKIDGRWVVEQYIIR | 1.47
REWKEEMLRFLTRWNKAYKTGNEQELNKLADPNVRVDINGKQLHGRELATLIVSELRIEETHVKMDTFRIVGEKAEIDSRLEIHGVYDGVKMDTHHEVVIILRKVDGQWHLTTMEER | 0.382
DERDEVLEDTARRVLEWLTTGNWEELAKYADPNVKNDINGRIDHGREEMSRRIREELHKVKNLKFNITYFDIIGDKVHFWGTLHYDGRTMETHIHIEVVDGRLHHMQFEIK | 0.983
DDIRKWMEHVFRDFNRSLKTGDERRSLELLDPHARIDINGVELIGREMFRKELHEMRIHVDDFDIESVDIQGDKVHLRTRVRVTIIVDGVKIHEERELEIHLHKFDGRWYIKEIRVR | 1.46
TEEDEEVEWVLKVLKETNDTGDEHTFRKLMDPRTKFHINGKDYIGMEAWREQVEKLGFKHIHDIKIEDMRVYNGRIQLHGRVDMVQGDKKIDMHVILIAVKVNGRWLLRFDIVE | 1.38

Sequence | protease stability score
SEEEEENRKRVEFFKKVWETGDEHSMEELMDPNVRLRIVVNGRHEHYHGREEVVHILQDELRKIKNVKVNLKRIDVVDGRAHSDIHVDQGDWRMKMEVILIKVNGRWRMKELELHVI | 1.78
DEEEEEHRIAHELFIKTSQTGDEQESTEMMDPNVRVTIGNKHFVGREEVSKFFKEIRIKRVRFKRIRHINGKAEMEMHMHGEVNGRERELEIHVYIFKINGRWVIEEVRFH | 1.64
SDEIEEVKTFVRLFTKDLETGNEEDLKRLADPNTRLDVNGREIHGWKSMEHRYRELMEKYKNLRIEVKIDDIRVQGDKIHIHTTIKLDYDGVDIELSSWLVIHKINGRWFVRSIEME | 0.605
DEHTHEIEHMLRHFLETLETGDEERYDRLADPHTRIDIGDKHLHGREKAQKLWRHWWKRFDHIHHLHIHHLEAVDGVNHVELREDIRVDGRRVIIRSLLILVVIDGRLREVRVEER | 0.496
SEEDKIALEILEMTKKLWDTGDEELMVDLVDPHVKVDWDGRERHGREAVEFFFRSIIEKVKNLTIRLTDFRVINGRIEIDSTLKFNGKTLEVRIISTKIDGQWYIESISFR | 1.38
DEEEELSKRLVELLLKLLKTGNEEELIKNADPHAKVQIRINGREFIHHGWEAFSHLWRHYIIKFKNIRIHDRHMEIQGDWVHIHSEEQIGDKRIEVEIRIQIINGVQKNVHIDIHEH | 1.47
REEERLTRHFAHRLFHSLMTGDEDELTELADPNARSIVDGRTVHGRETMSRIIHHKVRELGVDHNTIEHIEFQGNYVHVHMRIEVGDKTYTSIIHIEKVDGRWLVRSVNLL | 0.491
DEDDEHTHEMLKLVITAINTGDFEKWRHMADPNVRSDIDGQEVHGRETIIEVWRRIEKELGIENVEVHTRRVEVINGVAHIDGHIRFNGRTHKVRIEVYLINGKIQEFVLSRH | 1.45
SEEDKLIKDAFTEIHTWIKTGNEEYLERLVDPHVKIIINGRELHGMEFLHEELKRFDHLHLRDHHLESFDIQGNKIVLEGTNDIEIKWNGVRIRTELEIHFFVEKVNGKWIIREFVIV | 1.26
EEDDRDLEDLLTKLDSAIQTGNWEILHHLIDPHARSHYNGRDFHGWRDLEFLLRIIVEEIRLDTVDMKHHEFYGDKMRLETTLTGEVNGQKTEFTTVLIYLKIDGKWVIHNFEVR | 0.729
DEEEKIAEEMFRRWVELRETGNEDDRRRLADPHTRMVINGVEYHGRDQFTKFLEHVRREWRYEDNKERDVKFQGDKIEINGREVSHFDGKTVTTDVRIEIVVVNGRLKRFNIHVH | 1.38
SEEEKLSRELVNEFLRLWKTGDWRRFHELADPDAKQQYNVNGQNFDYHGRDEVTDAVREFLNRLGVDHFHVHDSRIIGEKKEIDGHLNFNGRTHHIEMVVVVINGRVHKIEFHVR | 0.28
DEEHEEVERMWERFIKYYLTGNEELFDHLADPNVRLIIGDKIAIGREEVRKLWERRRREIRIRHMNFHSVRWYDGRIDLEVEVNLDVNGREIKTEQRIHIKVINGRVKDVEIRVE | 0.743
SEEEKTSHHLLKLIKHDRETGNEKRMEEYIDPHVKLLINGREFHGWEDALHWIREAGIKHFELKHIDIIGEKLRIDGVINYNGQTHRITFHAIKVDGVWLNKEINHG | 0.121
DENKETIDRVYRLLDEALKTGDFEIFAYLMDPHVRNDVDGVDIVGRDLVKKVLEDIIRDLGFKHETLKVHDWRSINGRVHIDTEVELDVNGVDLRKRTIIIALKINGKWRITEIVFE | 2.33
SELDEDSEEAVREDIETIKTGNEEMFKRLVDPNARTDFNGKELVGREAVLHFWTMILKTMGVDHVHIEEVRIFNGRLIMHHTIHVGDKFIEVILFSEKFNGKWQIKEIEIR | 0.053
HEEHEKLRQLIEWYLEMLRTGDEESWLHLADPHVRNDVIYDGRHFQSHGRDRALDLLRLMLDLLGAKHLEVKRYRVIDGRVELDGRSRVGDKYQEMHLHLDVFNGRIHEMRIEIR | 0.58
DEDEELLREFFELLVEAELTGDEKEITRFADPNVILFQGEKEFHGRDFLIRLIMEIRIHHHELERFHLDVFNGRAEIHVDNRRDGWFDGKRIHTKVDLHIHSEKIDGRWLLKNINEILR | 0.716
DEEEHIERTFKDLFEHALETGDEHLLKRLLDPHARFDINGRDFHGREEVRRFWEETEKKLGIKHSEFRFRRRDHQGDFVRIDLHVIIFIGDKIEHREVEFFLTKIDGVWMIREVRVR | 0.613
HEKKEAYDYMVEILWKAMHTGDEKTLKHLFDPHTKVTQGDFEIHGMEQFSEHLKHARYRRVRVKFEDSHTQGEKVRMHTRLEFEGEIDGKRDTLEFETHQIVTKIDGRWVFESLEIE | 0.7
DEEHRDFKHLIKIFDDSVETGDEETFHKLLDPDVRIRVGDWQLVGREEARRVFQQIRIIIHSNRIHDVKVINGKIHADTHVDFRIEVGDKTVRERSRTIIYLDKVNGVWTIHSIEFK | 1.08
DEMEESAERMIEIYLRWLETGDEDSLVENIDPNVRVEIGDKRYHGREEVMHFLSSIQQRIKGARFHLKHFEIQGEYVDIHMEQRVGDKTMDRRVIFQKIDGRWLLKRSQVR | 1.5
DEDEEIDKHVAKHLEELFLTGDEKRLSQYFDPDVRNEVNGKEFHGRELLLKVLRDFGADHRTVEHREVSLYGEKMRFHIHLRLHVGDKSMTTILHIIIDKVNGRWHFEKIRIDVR | 0.798
DEHDELIERIARIYFEDELTGDWDSMMRLMDPRTRDDYNGKERHGWEEVETFFEELRKKFKGMKFHLEHLDVIGNKVHIIARWNVNGRHVQVHIDIIAFDGRVKSFSERVDIR | 1.15
SEQEEYLKEYAKHFYEFLLTGDEDWLKRLFDPEARLTVEVGDKTEHLHGREEVSKFWKHLLTEMRIEMTLKDLDSQGEFIVSVTELNINIDGKTIHTRMEIILVVVNGRLREVELRIK | 2.3
